The results in this text go back to the supplement of paper PMC11780869.

In the data set the test system is Bacillus subtilis. As to the kind of experiment: cleaved RNA product abundance (RNA/gDNA barcode ratio) relative to median wild-type variant (ratio to wild type); higher = more accumulation of the downstream cleavage product. Put shortly:
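The B. subtilis chromosome carried reporter mRNAs, truncated aprE or tetM, containing barcoded RNase Y cleavage-site windows mutagenized using oligos with a 9% error rate. After growth in LB at 37°C from OD600 0.0003 to 0.3, cleaved RNA was gel-selected, reverse transcribed and barcode-sequenced next to genomic DNA barcodes, with UMI collapsing. Each construct's RNA:gDNA barcode ratio was scaled to the median construct with the unmutated site. That scaled ratio is reported as cleaved product abundance.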

Setting [1] is: experiment (reporter, strain, medium): exp 4a: truncated aprE reporter, strain BJT201 with 2% xylose (RNase J1 expressed), cleavage site: cggR-gapA (positions -7 to +36 mutated).
[2] abbreviates: experiment (reporter, strain, medium): exp 2b: truncated aprE reporter, strain BJT200, cleavage site: cggR-gapA (positions -7 to +36 mutated).
Where [3] appears, read: experiment (reporter, strain, medium): exp 8a: truncated aprE reporter, strain BJT201 with 2% xylose (RNase J1 expressed), cleavage site: glnRA (positions -5 to +31 mutated).

Turning to “ACAGACGAAGGAGCCGCAAAGAAGTTATTAAGGGTTGAATAAGCCCTCAATATAAATATCTCTCACTTATTTAAA”, the “cleaved RNA product abundance” value under setting [1] is 0.608. As to “ACAGACGAAGGAGCCGCAAAGAAGTTATTAAGGGACGTATAATCCCTCAATATAAATATCTCTCACTTATTTAAA”, the “cleaved RNA product abundance” value under setting [1] was 0.705. Regarding “ACAGACGAAGGAGCCGCAAAGAAGTTATTAAGGGATGAATAAACCCTCAGTATAAATATCTCTCACTTATTTAAA”, the “cleaved RNA product abundance” value under setting [1] is 0.211. In the case of “ACAGACGAAGGAGCCGCAAAGGAGTTATTAAGGGAAGAATAATCCCTCAATATAAATATCTCTCACTTATTTAAA”, the “cleaved RNA product abundance” value under setting [2] came out at 0.495.

On to “CGACATGTCCCGCTTCTTTCATTAATCAGTTAGCAACTGTATTGCTATATACATTTACCTTTTAAGAGGAGGAAT”, for which the “cleaved RNA product abundance” value under setting [3] was 0.59.

“CGACATGTCCCGCTTCTTTCATTACTCCGTTAGCAACTGTTTTTCTATTTACATTTACCTTTTAAGAGGAGGAAT”: the “cleaved RNA product abundance” value under setting [3] stood at 0.151. Consider “ACAGACGAAGGAGCCGCAAAGAAGTTATTAAGGGATGAATAATCCCTCAATATAAATATCTCTACTTATTTAAAG”, for which the “cleaved RNA product abundance” value under setting [2] worked out at 1.09. “CGACATGTCCCGCTTCTTTCATTAATCCGTTAGCAACTGTTTAGCTATATACATTTACCTTTTAAGAGGAGGAAT”: the “cleaved RNA product abundance” value under setting [3] was 0.537. Take “CGACATGTCCCGCTTCTTTCATTAATCCATTAGCAACTGTTTTGCTATATACATTTACGTTTTAAGAGGAGGAAT”: under setting [3], the “cleaved RNA product abundance” value came out at 0.903. For “ACAGACGAAGGAGCCGCAAAGAAGTTATAAAGTGATGAATAATCCCTCAATATAAATATCTCTCACTTATTTAAA”, the “cleaved RNA product abundance” value runs as follows: under setting [2], 0.0907; under setting [1], 0.117. Regarding “CGACATGTCCCGCTTCTTTCATTAATCCGTTAGCAACTGTTTGGCTATATACATTTACCGTTTAAGAGGAGGAAT”, the “cleaved RNA product abundance” value under setting [3] was found to be 0.403. Take “ACAGACGAAGGAGCCGCAAAGACGTTATTAAGGTATGAATAATCCCTCAATATAAATATCTCTCACTTATTTAAA”: the “cleaved RNA product abundance” value under setting [2] is 0.0832 and the “cleaved RNA product abundance” value under setting [1] amounted to 0.153.

Consider “CGACATGTCCCGCTTCTTTCATTAATCCGTTAGCAACAGTTTTGCTATATACATTTACTTTTTAAGAGGAGGAAT”, for which, under setting [3], the “cleaved RNA product abundance” value turned out to be 1.18.

Consider “ACAGACGAAGGAGCCGCAAAGAAGTTATTAAGGGATGAATAATACCTCTATATAAATATCTCTCACTTATTTAAA”, for which, under setting [1], the “cleaved RNA product abundance” value is 0.156. Consider “ACAGACGAAGGAGCCGCAAAGAAGTTATTAAAGTATGAATAATCCCTCAATATAAATATCTCTCACTTATTTAAA”, for which the “cleaved RNA product abundance” value under setting [2] came out at 0.0922 and the “cleaved RNA product abundance” value under setting [1] was 0.124. Consider “ACAGACGAAGGAGCCGCAAAGAAGTTATTAAGGGATAAGTAATCCCTCAATATAAATATCTCTCACTTATTTAAA”, for which the “cleaved RNA product abundance” value reads like this: under setting [2], 0.555; under setting [1], 0.785. Take “ACAGACGAAGGAGCCGCAAAGAAGTTATTAAGGGATGAAAAATCCCTCAATATAGATATCTCTCACTTATTTAAA”: the “cleaved RNA product abundance” value under setting [2] amounted to 0.277. As to “ACAGACGAAGGAGCCGCAAAGAAGTGATTAAGGGATGAATAATCCCGCAATATAAATATCTCTCACTTATTTAAA”, under setting [1], the “cleaved RNA product abundance” value came out at 0.124. “ACAGACGAAGGAGCCGCAAAGAAGTTATTAAGGGAAGAATAATCGCTCAATATAAATATCTCTCACTTATTTAAA”: the “cleaved RNA product abundance” value under setting [1] amounted to 0.114. On the same count and under the same terms, with “ACAGACGAAGGAGCCGCTAAGAAGTTATTAAGGGATAAATAATCCCTCAATATAAATATCTCTCACTTATTTAAA” the figure was 1.15. As to “ACAGACGAAGGAGCCGCAAAGAAGTTATTAAGGCATGAACAATCCCTCAATATAAATATCTCTCACTTATTTAAA”, the “cleaved RNA product abundance” value under setting [1] is 0.0684. For the sequence “CGACATGTCCCGCTTCTTTCATTAATCCGTTAGCAACTGCTTTGCTGTATACATTTACCTTTTAAGAGGAGGAAT”, under setting [3], the “cleaved RNA product abundance” value is 0.106. “ACAGACGAAGGAGCCGCAAAGAAGTTATTAAGAGATGAATAATCCCTCAATATAAATATATCTCACTTATTTAAA”: the “cleaved RNA product abundance” value under setting [1] stood at 0.193. With “ACAGACGAAGGAGCCGCAAAGAAGTTATTAAGGAATAAATAATCCCTCAATATAAATATCTCTCACTTATTTAAA”, the “cleaved RNA product abundance” value came out at 0.0901 under setting [2] and 0.0868 under setting [1]. As for “ACAGACGAAGGAGCCGCAAACAAGTTATTTAGGGATGAATAATCCCTCAATATAAATATCTCTCACTTATTTAAA”, the “cleaved RNA product abundance” value under setting [1] worked out at 0.67. With “ACAGACGAAGGAGCCGCAAAGAAGTTATTAAGGTATGAATAATCCCTCAATATTAATATCTCTCACTTATTTAAA”, under setting [1], the “cleaved RNA product abundance” value amounted to 0.0645. Consider “CGACATGTCCCGCTTCTTTCATTAATCCGTTATCAACTGTTCTGCTATATACATTTACCTTTTAAGAGGAGGAAT”, for which the “cleaved RNA product abundance” value under setting [3] is 0.213.

Take “ACAGACGAAGGAGCCGCAAAGAAGTTATTAAGGGATGAATAATCCCTCAATATAAATATCTCTCACTTTTTAAAG”: under setting [1], the “cleaved RNA product abundance” value worked out at 0.879. Regarding “CGACATGTCCCGCTTCTTTCATTAATCCATTAGCAACTGTTTTGATATATACATTTACCTTTTAAGAGGAGGAAT”, the “cleaved RNA product abundance” value under setting [3] was found to be 0.35. “ACAGACGAAGGAGCCGCAAAGAAGTTATTAAGGGATTAATAAGCCCTCAATATAAATATCTCTCACTTATTTAAA”: the “cleaved RNA product abundance” value under setting [2] is 0.453 and the “cleaved RNA product abundance” value under setting [1] was determined as 0.667. For the sequence “ACAGACGAAGGAGCCGCGAAGAAGTTAATAAGGGATGAATAATCCCTCAATATAAATATCTCTCACTTATTTAAA”, under setting [1], the “cleaved RNA product abundance” value was determined as 0.31.

As to “ACAGACGAAGGAGCCGCAAAGAAGTTATAAAGGGATGAACAATCCCTCAATATAAATATCTCTCACTTATTTAAA”, the “cleaved RNA product abundance” value under setting [2] stood at 0.261. For the sequence “ACAGACGAAGGAGCCGCAAAGAAGTTATTAAGGGATTAATCATCCCTCAATATAAATATCTCTCACTTATTTAAA”, the “cleaved RNA product abundance” value under setting [1] came to 1.2. “CGACATGTCCCGCTTCTTTCATTAATACGTTAGCAACTGTTTTGCTATTTACATTTACCTTTTAAGAGGAGGAAT”: under setting [3], the “cleaved RNA product abundance” value stood at 0.232. As for “CGACATGTCCCGCTTCTTTCATTAATCCGTTAGCAACTGTTTTGCTCTATAAATTTACCTTTTAAGAGGAGGAAT”, under setting [3], the “cleaved RNA product abundance” value worked out at 0.384. As to “ACAGACGAAGGAGCCGCAAAGAAGCTATTAATGGATGAATAATCCCTCAATATAAATATCTCTCACTTATTTAAA”, the “cleaved RNA product abundance” value under setting [1] stood at 0.123. “ACAGACGAAGGAGCCGCAAAGAAGTTATTTAGGGATGAATAATCCCTCAATTTAAATATCTCTCACTTATTTAAA”: the “cleaved RNA product abundance” value under setting [1] was 0.119. For “ACAGACGAAGGAGCCGCAAAGAAGATATTAAGGGATGAATAATCCCTCTATATAAATATCTCTCACTTATTTAAA”, the “cleaved RNA product abundance” value under setting [2] was 0.362 and the “cleaved RNA product abundance” value under setting [1] turned out to be 0.406. In the case of “ACAGACGAAGGAGCCGCAAAGAAGTTATTATGGGATGAATAATCCCTCAATATAGATATCTCTCACTTATTTAAA”, the “cleaved RNA product abundance” value under setting [1] was found to be 0.323. The same measure, in the same setting: with “ACAGACGAAGGAGCCGCACAGAAGTTATTAAGGGATTAATAATCCCTCAATATAAATATCTCTCACTTATTTAAA” the figure was 0.962; with “ACAGACGAAGGAGCCGCAAAGAAGTTATTAAGGGATGCATAATCCCACAATATAAATATCTCTCACTTATTTAAA”, 0.204. As to “ACAGACGAAGGAGCCGCAAAGAAGTTATTAAGGGATGAATAATCACTCAATATTAATATCTCTCACTTATTTAAA”, under setting [1], the “cleaved RNA product abundance” value was determined as 0.0358. As to “ACAGACGAAGGAGCCGCAAAGAAGTTATTAAGGGATGAATAATCCGTCATTATAAATATCTCTCACTTATTTAAA”, under setting [2], the “cleaved RNA product abundance” value was determined as 0.136.

Take “CGACATGTCCCGCTTCTTTCATTAATCCGTTAGCAACTGTATTGCTATATACATTTATCTTTTAAGAGGAGGAAT”: the “cleaved RNA product abundance” value under setting [3] was 1.07. Consider “CGACATGTCCCGCTTCTTTCATTAATACGTTAGCAACTGTTTTGCTATATACATGTACCTTTTAAGAGGAGGAAT”, for which, under setting [3], the “cleaved RNA product abundance” value worked out at 0.369. Still for that read-out and setting: with “CGACATGTCCCGCTTCTTTCATTAATCCGTTAGCAACTGTTTGGCTATATACATTTACATTTTAAGAGGAGGAAT” the figure was 0.339; with “CGACATGTCCCGCTTCTTTCATTAATCCGTTAGCATCTGTTTTTCTATATACATTTACCTTTTAAGAGGAGGAAT”, 0.273. “ACAGACGAAGGAGCCGCAAAGAAGTTATTAAGGGATGAATAATCCCTCTAGATAAATATCTCTCACTTATTTAAA”: the “cleaved RNA product abundance” value under setting [1] worked out at 0.266. For the sequence “CGACATGTCCCGCTTCTTTCATTAATCCGTTAGCAACTGTTTTGCAATATACCTTTACCTTTTAAGAGGAGGAAT”, the “cleaved RNA product abundance” value under setting [3] came out at 0.29.

Turning to “CGACATGTCCCGCTTCTTTCATTAATCCGTTTGCAACTATTTTGCTATATACATTTACCTTTTAAGAGGAGGAAT”, under setting [3], the “cleaved RNA product abundance” value is 0.859. Consider “CGACATGTCCCGCTTCTTTCATTAATCCGTTAGCAACTGTTTTGCTATAGACATTTAACTTTTAAGAGGAGGAAT”, for which the “cleaved RNA product abundance” value under setting [3] turned out to be 1.15. For the sequence “CGACATGTCCCGCTTCTTTCATTAATCCGGTAACAACTGTTTTGCTATATACATTTACCTTTTAAGAGGAGGAAT”, the “cleaved RNA product abundance” value under setting [3] amounted to 0.34. Turning to “ACAGACGAAGGAGCCGCAAAGAAGTTATTAAGGGATGATTAATACCTCAATATAAATATCTCTCACTTATTTAAA”, under setting [1], the “cleaved RNA product abundance” value is 0.134. For the sequence “CGACATGTCCCGCTTCTTTCATTAATCCGTTACCAACTGTGTTGCTATATACATTTACCTTTTAAGAGGAGGAAT”, the “cleaved RNA product abundance” value under setting [3] is 0.277.

Turning to “ACAGACGAAGGAGCCGCAAAGAAGTTATTAATAGATTAATAATCCCTCAATATAAATATCTCTCACTTATTTAAA”, the “cleaved RNA product abundance” value under setting [1] turned out to be 0.135. As for “CGACATGTCCCGCTTCTTTCATTAACCCGTTACTCACTGTTTTGGAATATACATTTACCTTTTAAGAGGAGGAAT”, the “cleaved RNA product abundance” value under setting [3] came to 0.147. Take “CGACATGTCCCGCTTCTTTCATTAATCCGTTAGAAACTGTTTTGCTATATACTTTTACCTTTTAAGAGGAGGAAT”: under setting [3], the “cleaved RNA product abundance” value worked out at 0.217.
